The source of these data is article PMC6461989.

The test concerns the target human active plasmin (human).

Some results are limits rather than exact numbers.

Sequence of human active plasmin (human) (P00747 20-580, chain 1 of 2): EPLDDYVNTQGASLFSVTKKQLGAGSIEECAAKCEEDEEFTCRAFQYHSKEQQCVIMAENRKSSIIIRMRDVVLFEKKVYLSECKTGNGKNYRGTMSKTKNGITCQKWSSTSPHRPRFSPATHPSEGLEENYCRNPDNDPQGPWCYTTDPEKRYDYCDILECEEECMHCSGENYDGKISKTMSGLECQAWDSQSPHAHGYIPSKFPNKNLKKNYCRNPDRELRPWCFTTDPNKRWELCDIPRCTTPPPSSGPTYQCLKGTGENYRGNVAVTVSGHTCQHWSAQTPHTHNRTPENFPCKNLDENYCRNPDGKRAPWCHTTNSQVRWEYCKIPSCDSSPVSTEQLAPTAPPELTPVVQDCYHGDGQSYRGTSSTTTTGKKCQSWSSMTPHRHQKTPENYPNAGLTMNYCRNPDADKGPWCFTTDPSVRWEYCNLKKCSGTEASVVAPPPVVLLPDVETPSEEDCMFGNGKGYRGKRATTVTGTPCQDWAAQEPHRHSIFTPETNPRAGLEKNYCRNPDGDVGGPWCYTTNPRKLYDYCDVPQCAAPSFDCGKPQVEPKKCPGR
Sequence of human active plasmin (human) (P00747 581-810, chain 2 of 2): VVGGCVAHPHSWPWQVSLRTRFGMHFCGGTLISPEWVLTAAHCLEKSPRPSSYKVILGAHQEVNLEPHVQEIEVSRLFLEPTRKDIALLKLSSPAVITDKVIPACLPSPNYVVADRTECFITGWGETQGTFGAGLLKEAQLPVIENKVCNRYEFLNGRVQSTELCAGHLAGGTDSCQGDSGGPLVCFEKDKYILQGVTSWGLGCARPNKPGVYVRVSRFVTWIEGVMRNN

B1: α-2-antiplasmin (natural protein)
chain: NQEQVSPLTLLKLGNQEPGGQTALKSPPGVCSRDPTPEQTHRLARAMMAFTADLFSLVAQTSTCPNLILSPLSVALALSHLALGAQNHTLQRLQQVLHAGSGPCLPHLLSRLCQDLGPGAFRLAARMYLQKGFPIKEDFLEQSEQLFGAKPVSLTGKQEDDLANINQWVKEATEGKIQEFLSGLPEDTVLLLLNAIHFQGFWRNKFDPSLTQRDSFHLDEQFTVPVEMMQARTYPLRWFLLEQPEIQVAHFPFKNNMSFVVLVPTHFEWNVSQVLANLSWDTLHPPLVWERPTKVRLPKLYLKHQMDLVATLSQLGLQELFQAPDLRGISEQSLVVSGVQHQSTLELSEVGVEAAAATSIAMSRMSLSSFSVNRPFLFFIFEDTTGLPLFVGSVRNPNPSAPRELKEQQDSPGNKDFLQSLKGFPRGDKLFGPDLKLVPPMEEDYPQFGSPK
Turning to B1, the inhibition of plasmin activity, low ratio (~40%) to high ratio of α-2-antiplasmin to plasmin (Supplementary Figure S13B) is over 99%.

B2: recombinant HAI-2 (rHAI-2) proteins containing the extracellular region of HAI-2 (domain or fragment)
chain: ADRERSIHDFCLVSKVVGRCRASMPRWWYNVTDGSCQLFVYGGCDGNSNNYLTKEECLKKCATVTENATGDLATSRNAADSSVPSAPRRQDSEDHSSDMFNYEEYCTANAVTGPCRASFPRWYFDVERNSCNNFIYGGCRGNKNSYRSEEACMLRCFRQQENPPLPLGSK
In the case of B2, the inhibition of plasmin activity in the presence of equimolar uPA and plasminogen, ratio of HAI-2 to uPA/plasminogen 1:1 (~20% inhibition) to 10:1 (Supplementary Figure S13A) stood at 75%; the inhibition of plasmin activity, high ratio of HAI-2 to plasmin (Supplementary Figure S13B) worked out at 66%.
